The target in test [1] is CK1δ from rat as GST-tagged fusion protein (rat) (UniProt Q06486).
The target of test [2] is CK1δ KD (kinase domain of CK1δ) (rat) (UniProt Q06486).
The target in test [3] is CK1ε from human as HIS-tagged fusion protein (human) (UniProt P49674).
Chain of UniProt P49674 (P49674 whole entry, the tested form may be a part): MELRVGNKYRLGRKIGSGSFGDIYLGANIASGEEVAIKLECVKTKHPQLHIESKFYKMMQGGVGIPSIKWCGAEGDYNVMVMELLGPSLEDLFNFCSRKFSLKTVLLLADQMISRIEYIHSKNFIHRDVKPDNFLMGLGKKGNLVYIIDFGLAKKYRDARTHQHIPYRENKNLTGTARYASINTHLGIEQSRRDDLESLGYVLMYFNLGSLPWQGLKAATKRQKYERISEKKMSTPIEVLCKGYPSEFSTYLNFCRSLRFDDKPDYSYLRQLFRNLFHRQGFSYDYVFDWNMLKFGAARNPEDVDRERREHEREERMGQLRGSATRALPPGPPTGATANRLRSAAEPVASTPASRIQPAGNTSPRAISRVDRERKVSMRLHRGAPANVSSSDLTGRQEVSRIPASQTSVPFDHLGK

On to “Recombinant human α-tubulin1B (GST-tubulin) (from UniProt P68363 1-451) (natural protein)”, for which the figures for the Km of phosphorylation of GST-tubulin by the CK1 isoform (Michaelis-Menten kinetics, in vitro kinase assay, 32P incorporation, 30 min at 30°C) in test [1], in test [2] and in test [3] were 0.205 µM, 0.266 µM and 0.329 µM, respectively.
The matching figures for “Recombinant human α-tubulin4A (GST-tubulin) (from UniProt P68366 1-448) (natural protein)”: 0.337 µM, 0.438 µM and 0.602 µM.
The matching figures for “Recombinant human β-tubulin2A (GST-tubulin) (from UniProt Q13885 1-445) (natural protein)”: 1.17 µM, 1.47 µM and 1.41 µM.

(Values after paper PMC4061085.)
